{
  "source": "patent US20150232539",
  "key": {"[1]": {"target": "HuD N-terminal fragment (1-117) in which the 8 N and D residues in the 36-amino acid flexible region were mutated to Q and E (UniProt P26378)", "sequence (P26378 other isoform, or with tags, fused parts or gaps, change not shown)": "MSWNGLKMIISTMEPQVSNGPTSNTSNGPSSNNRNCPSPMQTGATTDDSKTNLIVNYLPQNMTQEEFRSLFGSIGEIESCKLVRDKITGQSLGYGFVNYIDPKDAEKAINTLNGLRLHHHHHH"}, "[2]": {"target": "HuD RRM1 lacking the N-terminal 36 amino acids (37-117 aa) (UniProt P26378)", "sequence (P26378 37-117)": "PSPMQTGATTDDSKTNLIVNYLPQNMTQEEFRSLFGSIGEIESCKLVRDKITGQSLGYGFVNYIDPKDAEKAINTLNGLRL"}, "[3]": {"target": "in vitro isoaspartyl-converted recombinant HuD N-terminal fragment (amino acids 1-117, wildtype) (UniProt P26378)", "sequence (P26378 whole entry, looked up, the tested form may be a part)": "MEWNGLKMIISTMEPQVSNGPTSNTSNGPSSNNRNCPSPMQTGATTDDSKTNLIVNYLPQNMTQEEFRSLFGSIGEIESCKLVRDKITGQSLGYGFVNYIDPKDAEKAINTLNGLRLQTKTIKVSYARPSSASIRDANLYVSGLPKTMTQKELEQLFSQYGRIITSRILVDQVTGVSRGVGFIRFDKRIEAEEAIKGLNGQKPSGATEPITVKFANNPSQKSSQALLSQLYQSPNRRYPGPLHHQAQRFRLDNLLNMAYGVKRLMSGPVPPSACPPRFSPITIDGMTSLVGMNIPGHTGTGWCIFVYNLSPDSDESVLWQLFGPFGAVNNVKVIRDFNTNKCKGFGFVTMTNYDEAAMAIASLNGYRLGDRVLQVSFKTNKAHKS"}, "[4]": {"target": "native recombinant HuD N-terminal fragment (amino acids 1-117, wildtype, day 0, not converted) (UniProt P26378)", "sequence (P26378 other isoform, or with tags, fused parts or gaps)": "as the sequence (P26378 other isoform, or with tags, fused parts or gaps, change not shown) above"}, "[5]": {"system": "synapsin (isoaspartyl-converted, positive control)"}},
  "data": [
    {"substance": "recombinant rat protein-L-isoaspartyl methyltransferase (PIMT)", "values": [
      {"measurement": "on-blot methylation with [3H]-AdoMet by PIMT", "setting": "[1]", "value": "Only the Day 3 and Day 7 samples from the original 117 amino acid fragment show above background labeling"},
      {"measurement": "on-blot methylation with [3H]-AdoMet by PIMT", "setting": "[2]", "value": "the RRM1 domain alone shows no signal above background when incubated under isoaspartylation conditions and then subjected to PIMT modification"},
      {"measurement": "PIMT-catalyzed [3H]-methyl incorporation from [3H]-AdoMet (autoradiography)", "setting": "[3]", "value": "followed by a strong increase in PIMT-mediated methylation over the seven day incubation"},
      {"measurement": "PIMT-catalyzed [3H]-methyl incorporation from [3H]-AdoMet (autoradiography)", "setting": "[4]", "value": "HuD exhibited no reactivity at Day 0"},
      {"measurement": "PIMT-catalyzed [3H]-methyl incorporation from [3H]-AdoMet (autoradiography)", "setting": "[5]", "value": "Isoaspartyl-converted synapsin and HuD were visualized by methylation with [3H]-AdoMet by PIMT"}
    ]}
  ]
}
